In the DeepSol protein solubility set:

Assay: soluble on expression in E. coli; label from the status in PepcDB or PDB records
With “MAEQRSNIMRLPPSGYRLHRFPPLAQPVAVDEEFGLDNQGWQESQVDIQQQLEAGFQQGLQQGHEEGLRQGIEQGKQQGLLDGQKEGFQKGFVSGEQAGKQGFLEAAKPVNDLFQALSRWQSEKEQQQRHMICELVQKVAQQVIRAELTLMPQQILALVDETLSAMPGKAETVTVHLNPQDLERITHINADLPKSWKLVANNELPIGGCQLVTDDAEADASCDSRLEACMDNVKQHLLDEVSIPQVESENE” the “soluble on expression in E. coli” value was “not soluble”.
In the case of “MHDVPPFSGAKLALFYGDHLVVYKRDEKPGIPFPGYWDFPGGGREGLETPAECALRELEEEFSIRLEEPRIEWQRQYPSTSGSAPFAYFLVARLEDREFEAIRFGDEGQYWRLMEVDAYLAHAMAVPYLQSRLGDYLRERRRIGE”, the “soluble on expression in E. coli” value is reported as “soluble”.
For “MGSDKIHHHHHHMINENQHMTEREPSTRRIKSMQTASEVLRELQSQSEATLSDLCGNIDVAKSTLHTYLQTLVAEGFIDKSDGVYRLGLRFIPLGESVRNRIDLYQLGKEEVKRLAEETNEWVHLTVAYRSREVTLYEHNGGETVAVDYQRRTRESPQYLHCTATGKALLAYFDDDRVTETVATEGLVQQTEQTITDPDELREELEEIRARGYAVNDEEEIRGMRSVGAPIQDVDGTVCGAISVTAPKTRLSGDYLYNDLPELVMEAANIIEINLESAAASGE”, the “soluble on expression in E. coli” value was “not soluble”.
With “MTLRKILALTCLLLPMMASAHQFETGQRVPPIGITDRGELVLDKDQFSYKTWNSAQLVGKVRVLQHIAGRTSAKEKNATLIEAIKSAKLPHDRYQTTTIVNTDDAIPGSGMFVRSSLESNKKLYPWSQFIVDSNGVALGAWQLDEESSAVVVLDKDGRVQWAKDGALTPEEVQQVMDLLQKLLK” the “soluble on expression in E. coli” value was “not soluble”.
With “MRTIYVIGIGTGSPEFLTLQAISGLRHAQAIVALDKGEQKSDLLALRQKIVDTHAPGTPIYAVTDPERDRNPDNYEEEVRRWHAERAHLLASTIRERTPDDGAVAFLVWGDPSLYDSTLRIIEHMRNLEDLHADVKVIPGITAVQVLTAEHGILINRIGEAIHITTGRNLPETSAKDRRNCVVMLDGKTAWQDVATEHTYMWWGAFLGTEQQVLRKGYVHEIGAQVAELKQQLRTEHGWIMDTYLLRELD” the “soluble on expression in E. coli” value was “soluble”.
In the case of “MAHHHHHHMTSFMLATNCPDELCCALCLDSWKKPVELQPCGHIFCQECIGAPRVCPVCRAPVNCTKQPHRSLVNLAQNLPVRCSSCGWTGRREGSDSHTCPTASWSGSTEAPSTTNAQSTCQGSRQQSVADTPWLRYGLTQEEYDSIVALFVFFDSDESGHLCREEMGRLARWLNFARTDDDIDRMFREMDEDGTGTLCLEEFLSWLSKNRPDPSVLYGMSQQQYNCVMMQFRLYDRDRDGFLDADDFSKLAVRIGDVPDIESGMQLFRSITTGHCEKIGLHQFLLYCVGRMFR”, the “soluble on expression in E. coli” value is reported as “not soluble”.
For “MRLHIGGREKHPDWKIFDALERPEVNFVGNAADLSQFADDSIEAIYASHVLEHFHHSLGNELVSVLLEWRRVLLPNGKLYISVPDLQTLSWLFLSPMAGFQHRLQIMRMMFGGQVDQYDVHKVGFDCEILFTYLQAAKFSDYERVENFELFQDCSNLVFLGYPISLNVVAVKLEHHHHHH”, the “soluble on expression in E. coli” value was “not soluble”.
In the case of “GSRATVFKLGLFKSLFLCSFHDITRLFKNDKTTNQQWVLAVFGLAEVFFEASFELLKKQCSFLQMQKRSHEGGTCAVYLICFNTAKSRETVRNLMANMLNVREECLMLQPPKIRGLSAALFWFKSSLSPATLKHGALPEWIRAQTTLN”, the “soluble on expression in E. coli” value is reported as “soluble”.
In the case of “VVMHPGFGAAALTGATGAAAAAAAAPTPQASPLGGRGTGASAEPATSAHSHGGGGGFGNVVSGTPMETTVSLPPQVSSHAGGRGASGSTDSSAEASTDHKRARTNNPGAGGARAAQAAALPSLDAVTSQQAAAAAGMAPAAGTLGAVPPAYPAVAVAPAAEVNGAMPYVDALTEQLRAVRLLQPTPPSSASSAPVRASAAAMADVTENVAVKAKGKKKGAAAAAAAQPPPPPLLPPAPRTEMDRRAALSGAAGAFMAACDEAVRELLLAMNFSDHDAEAIITGAAPPQLEHAASGVVSLVLRLKSSVLSHYIKHLNNAAARSQAAAASTAAVDGNAEDAADKHGAKATSAAKAPPAAGGGAGDAADQQLSTGEACLVQLQLYGGVGDALLQLLRSKLRGSACQLWALAHIVHPHPSRSEKESLAAYTGKSTKQVTDWFTNWRARHW”, the “soluble on expression in E. coli” value is reported as “not soluble”.
With “MAEVTGVRALTGAALDAALEDVARLRIAVFRAWPYLYDGDLDYERDYLQAYRNSDRAIVVGAFDGDRLIGASTGMPLADHADDFAAAFADSGLALDQVFYCAESVLLPDYRGHGVGHRFFDLREGHARALGFAKC” the “soluble on expression in E. coli” value was “not soluble”.
For “MGSDKIHHHHHHQTPSPLGEWQYSAGVPLDKLFNPNPQTWQISVGAAATLQPRYDGSNQYRPMAGPTFDARYRDLWFVSTGEGIGVNVLRGPNWRATLSAGYDLGRREADDRGHLTGIGNINPAAVIKLSADYVISHAFPLVLRADVRRSVGGANGWVADLAAYMPLPGSSETFYWFAGPTVTFADSRYMNSWFGVNDAQAARSGHPRYAPSAGVKSFGGGMTLVWFVTKHWFVTADGAIEQLVGSAARSPLTQRSTNAVVDVSINYQF”, the “soluble on expression in E. coli” value was “not soluble”.
In the case of “MTIDTDLDRTPAASSENPVEARRTQARAWFEGLRDRICAEIETLEREAPAELFPGEPATFTYKPWQRKTGAGGGVGGFLSNGRLFEKIGIHTSSANGKLTPEMAKNVPGDGSLDYVSTSISLIMHPRSPRVPTVHMNTRFLSTSQGWFGGGADLTPMLPEQRSQDAEDAVIFHTAMKHACDAHDPAYYDKFKPWADTYFFLPHRGVARGVGGIFFDYLNSGDFDRDFAFTRAVGSALLDVYPKIVRKRMIEPWTDAERAQQLACRGLYVEFNLLYDRGTMFGLQTGGNTETIMSSMPPLVSWSMAGDPLEHHHHHH”, the “soluble on expression in E. coli” value is reported as “not soluble”.
In the case of “MGSDKIHHHHHHMQANKNIQKLTPYLSIPHKIWNSSQSNILKLDWNEATIPPSPYVIESIKKFLVNGNLNWYPNTKNLYLLDKIAEYTKQINSSFVELFEGSDSAHECIIDVFLDKCDKIGIVSPTYDNFRSRANGVGIETISFTLDDNFNLDFDSLEYFIHEKRIKLLYLCNPNNPTGKSYNIQKIKSLIINNPNVMFIIDEAYYEFTSQSVCDLVEQCNNLIITRTFSKAFALASFRIGYIISHPENIESINKLRNPKSVPMLSQIAANAALEDLQYMRDYVDEVSCARMEFVKFLNTLTTGGGGIFNDSVANFVLIQNENISLFVGFLEKEGIFIRNYSHLISKNCRISIGTRNQMSYVAEKIQEFAKKQGGFHLV”, the “soluble on expression in E. coli” value is reported as “not soluble”.
For “ANATKNTPSEDQQLANIIETHEAFYLKSSPFNQPEVIGNNAKLPDLSADFLLAQYQQGLAIYQQLIALDNEKLTQENQINFSVLTYSLKNQLDSYINKEHYMPLTAESGFHVWIANISKQVDFKTFTDYQDYLVRLSLLPAYFSQQTYWMKKGLKSGISQPKIVLKGFEQSIAAYIKEDVTESSYYQPFNKMSAFITTSQKKDLQQQAKQVLSTKVMPAYTAYYDFMVNVYQPNARDNIAAISLPNGKEYYQNRLVHYTTLPMTATEVHQQGVGEVKRIRVEMNAIIEQVNFDGSFSEFVEFLRTDPQFYASTPTELLKEASFIAKKMDAKLPRLFKTLPRTPYGVMAVPANIAPKYTTGRYAGSSRDDQPGNYWVNTYRLDRRPLYVLTALTLHEAVPGHHLQISLAKEMKDVAKFRNRSYISAFGEGWGLYSEYLGIEAGMYEDPYHNFGRLTYEMWRACRLVVDTGMHTQGWSREQAMDFLASNTALSLHNVKTEIDRYISWPGQALSYKIGELTIKRLRKEAEQTLGEDFDLREFHDQILKHGSMPLSMLDKIITQYINDKDNSVTK”, the “soluble on expression in E. coli” value was “not soluble”.
In the case of “MASSMRSLFSDHGKYVESFRRFLNHSTEHQCMQEFMDKKLPGIIGRIGDTKSEIKILSIGGGAGEIDLQILSKVQAQYPGVCINNEVVEPSAEQIAKYKELVAKTSNLENVKFAWHKETSSEYQSRMLEKKELQKWDFIHMIQMLYYVKDIPATLKFFHSLLGTNAKMLIIVVSGSSGWDKLWKKYGSRFPQDDLCQYITSDDLTQMLDNLGLKYECYDLLSTMDISDCFIDGNENGDLLWDFLTETCNFNATAPPDLRAELGKDLQEPEFSAKKEGKVLFNNTLSFIVIEA”, the “soluble on expression in E. coli” value is reported as “soluble”.
With “MGSDKIHHHHHHMMKRVLIKPLEPLMFRSQGEFEPLITGSHTAAQSLIIPRPSTIAGMLGYILFNKSSGTGDWLSDLTNLLDTIYGTFIETNGEYLFPLRMGNHLALVDQQHLINLPILLEKEYEQREKGIYELFYDKNKLFQIINHQDRIGISIDKSTRTVKEHYLYSARYLAFKKEVNYVIFIDNDAISDKINGKIVNFGGENRIAKLEVDDYKVDTSIEEEYYLTLSPILIPDEALDDLLDNISDYVTMGKVDKISLGFDIANTKRKEMLTAILEGSIVKRSIIDFIKKEINNNLLDRFTKYEKIGYNTLMNLCKLAFRKILS” the “soluble on expression in E. coli” value was “not soluble”.
With “MANKKNKVKFNICNVHYAPITVADEGKVSFGTPVAMPGAVSISMDPTGEPESFYADGIEYYVINNNQGYDGDLELAMIPETFRTDILKEEADSNNVLVENANSETGSFALLFEFDGDIRKIRHVLYNCSASRPTIESKTNEEDKEVQTETLTIKARPMADGYVKAKTGDSTTDTVYNNWYKSVYLPNSLEHHHHHH” the “soluble on expression in E. coli” value was “soluble”.
In the case of “MGKKDKRSKLEGDDLAEAQQKGSFQLPSSNETAKLDASQWPLLLKNYDKLNVRTNHYTPHVEGVSPLKRDIKNYISSGFFNLDKPSNPSSHEVVSWIKRILRCEKTGHSGTLDPKVSGCLIVCIDRTTRLAKSQQGAGKEYICIFKLHEEVEDDRKVKQALEKLTGALFQRPPLISAVKRQLRIRTVYENKFIEYDPAQQMGIFNCICESGTYVRTICVHLGLILGCGGQMQELRRNRSGICDENENMVTMHDVLDAQYLLDTQKDESYMRHIVRPLEALLTQHKRVVVKDSCINAICYGAKILIPGILRYDDDIEVGKEIVIMSTKGEAICIAIAQMNTSTIASVDHGVVAKSKRVIMERDVYGRKWGLGPVASKKKQMVKDGLLDKFGKPNDTTPKSWAKEYVQTSTKKEVKKEETPDEEEEEAPKKKSKKSKKQESSDSDSD”, the “soluble on expression in E. coli” value is reported as “not soluble”.
In the case of “MSLSIYQASIPTFLRTLGNLSAILKKAAAHAEAKNIDPRIFIDARLAPDMFPLARQVQIASDAAKGAGARLAGLEVPSYADTETTFDELQARIARTVEFLEGIREEQLDGAEERNVTLKVRGQEISFNGRDFLFGFALPNFFFHVTTAYAILRHNGVELGKMDFLGGA”, the “soluble on expression in E. coli” value is reported as “not soluble”.
For “MTKSQQKVSSIEKLSNQEGIISALAFDQRGALKRMMAEHQSETPTVEQIEQLKVLVSEELTQYASSILLDPEYGLPASDARNNDCGLLLAYEKTGYDVNAKGRLPDCLVEWSAKRLKEQGANAVKFLLYYDVDDTEEINIQKKAYIERIGSECVAEDIPFFLEVLTYDDNIPDNKSAEFAKVKPRKVNEAMKLFSEDCFNVDVLKVEVPVNMNFVEGFSEGEVVYTKEEAAQHFRDQDAATHLPYIYLSAGVSAELFQDTLKFAHDSGAQFNGVLCGRATWSGAVKVYIEEGEQAAREWLRTVGFKNIDDLNTVLKTTATSWKNK”, the “soluble on expression in E. coli” value was “soluble”.
In the case of “MKPAYFISDLHLSEKQPELTALLLRFLRSSAAGQARAIYILGDLFDFWVGDDEVSELNTSVAREIRKLSDKGVAVFFVRGNRDFLIGQDFCRQAGMTLLPDYSVLDLFGCKTLICHGDTLCTDDRAYQRFRKIVHRKRLQKLFLMLPLKWRTRLATKIRRVSKMEKQVKPADIMDVNAAFTARQVRAFGAERLIHGHTHREHIHHENGFTRIVLGDWHNDYASILRVDGDGAVFVPLEKY”, the “soluble on expression in E. coli” value is reported as “not soluble”.
